B1: trypsin variant SEQ ID NO: 94 (protein)
chain: IVGGYTCAANSIPYQVSLNSGSHRCGGSLINSQWVVSAAHCYKPRIQVRLGEHNIHVLEGNEQFINAAKIITHPNFNGNTLDNDIMLIKLSSPATLNSNVATVSLPRSCAAAGTECLISGWGNTCSSGSSMPSLLQCLKAPVLSDSSCKSSYPGQITGNMICVGFLEGGADACQGDSGGPVVCNGQLQGIVSSGYGCAQKNKPGVYTKVCNYVNWIQQTIAAN
For B1, in the data set with pre-pro-human insulin, the “Activity PPI cleavage” value was “yes” and the Selectivity is listed as over 90%. In the data set with pre-pro-insulin glargine, this protein showed a Purity Insulin Glargine of 85.2 area %, a Yield of over 90%, a desArg of 0.8 area % and a desThr of 0.3 area %.

B2: trypsin variant SEQ ID NO: 98 (protein)
chain: IVGGYTCAANSIPYQVSLNSGSHRCGGSLINSQWVVSAAHCYKPRIQVRLGEHNIHVLEGNEQFINAAKIITHPNFNPNTLDNDIMLIKLSSPATLNSAVATVSLPTSCAAAGTECLISGWGNTASSGSSMPSLLQCLKAPVLSDSSCKSSYPGQITGNMICVGFLEGGADSCQGDSGGPVVCNGQLQGIVSSGYGCAQKNKPGVYTKVCNYVNWIQQTIAAN
Take B2: in the data set with pre-pro-human insulin, the “Activity PPI cleavage” value is recorded as “yes” and the Selectivity is listed as over 90%. In the data set with pre-pro-insulin glargine, this protein registered a Purity Insulin Glargine of 89.4 area %, a Yield of over 90%, a desArg of 0.9 area % and a desThr of 2.7 area %.

B3: trypsin variant SEQ ID NO: 97 (protein)
chain: IVGGYTCAANSIPYQVSLNSGSHRCGGSLINSQWVVSAAHCYKPRIQVRLGEHNIHVLEGNEQFINAAKIITHPNFNPNTLDNDIMLIKLSSPATLNSAVATVSLPTSCAAAGTECLISGWGNTASSGSSMPSLLQCLKAPVLSDSSCKSSYPGQITGNMICVGFLEGGADACQGDSGGPVVCNGQLQGIVSSGYGCAQKNKPGVYTKVCNYVNWIQQTIAAN
In the case of B3, in the data set with pre-pro-human insulin, the “Activity PPI cleavage” value was “yes” and the Selectivity is over 90%. In the data set with pre-pro-insulin glargine, this protein showed a Purity Insulin Glargine of 89.4 area %, a Yield of over 90%, a desArg of under 0.5 area % and a desThr of 1.2 area %.

B4: trypsin variant SEQ ID NO: 96 (protein)
chain: IVGGYTCAANSIPYQVSLNSGSHRCGGSLINSQWVVSAAHCYKPRIQVRLGEHNIDVLEGNEQFINAAKIITHPNFNPNTLDNDIMLIKLSSPATLNSHVATVSLPRSCAAAGTECLISGWGNTSSSGSSMPSLLQCLKAPVLSDSSCKSSYPGQITGNMICVGFLEGGADACQGDSGGPVVCNGQLQGIVSSGYGCAQKNKPGVYTKVCNYVNWIQQTIAAN
With B4, in the data set with pre-pro-human insulin, the “Activity PPI cleavage” value is “yes” and the Selectivity is given as over 90%. In the data set with pre-pro-insulin glargine, the Purity Insulin Glargine was determined as 78.7 area %, the Yield is over 80%, the desArg worked out at 0.7 area % and the desThr stood at 0.3 area %.

B5: trypsin variant SEQ ID NO: 95 (protein)
chain: IVGGYTCAANSIPYQVSLNSGSHRCGGSLINSQWVVSAAHCYKPRIQVRLGEHNIHVLEGNEQFINAAKIITHPNFNPNTLDNDIMLIKLSSPATLNSHVATVSLPRSCAAAGTECLISGWGNTSSSGSSMPSLLQCLKAPVLSDSSCKSSYPGQITGNMICVGFLEGGADACQGDSGGPVVCNGQLQGIVSSGYGCAQKNKPGVYTKVCNYVNWIQQTIAAN
Take B5: in the data set with pre-pro-human insulin, the “Activity PPI cleavage” value is “yes” and the Selectivity is reported as over 90%. Also, in the data set with pre-pro-insulin glargine, the Purity Insulin Glargine stood at 90 area %, the Yield is over 90%, the desArg worked out at 1 area % and the desThr was 0.6 area %.

B6: trypsin variant SEQ ID NO: 99 (protein)
chain: IVGGYTCAANSIPYQVSLNSGSHRCGGSLINSQWVVSAAHCYKSRIQVRLGEHNIHVLEGNEQFINAAKIITHPNFNPNTLDNDIMLIKLSSPATLNSNVATVSLPTSCAAAGTECLISGWGNTSSSGSSYPSLLQCLKAPVLSDSSCKSSYPGQITGNMICVGFLEGGADACQGDSGGPVVCNGQLQGIVSSGYGCAQKNKPGVYTKVCNYVNWIQQTIAAN
As to B6, in the data set with pre-pro-human insulin, the “Activity PPI cleavage” value is on record as “yes” and the Selectivity is listed as over 80%. Besides, in the data set with pre-pro-insulin glargine, the Purity Insulin Glargine is 89.2 area %, the Yield was over 90%, the desArg was 0.9 area % and the desThr is 1 area %.

Source of the values: US20230303994.
